Results taken from paper PMC7469494 (Autophagy, 2019).
Numbering of substitutions follows the chain as printed.

Experiments:
[1] = biological target: T1, Vac8[40–515]^L55R (S. cerevisiae, UniProt P39968 40-515, L55R); assay: SEC
T1 sequence (looked up): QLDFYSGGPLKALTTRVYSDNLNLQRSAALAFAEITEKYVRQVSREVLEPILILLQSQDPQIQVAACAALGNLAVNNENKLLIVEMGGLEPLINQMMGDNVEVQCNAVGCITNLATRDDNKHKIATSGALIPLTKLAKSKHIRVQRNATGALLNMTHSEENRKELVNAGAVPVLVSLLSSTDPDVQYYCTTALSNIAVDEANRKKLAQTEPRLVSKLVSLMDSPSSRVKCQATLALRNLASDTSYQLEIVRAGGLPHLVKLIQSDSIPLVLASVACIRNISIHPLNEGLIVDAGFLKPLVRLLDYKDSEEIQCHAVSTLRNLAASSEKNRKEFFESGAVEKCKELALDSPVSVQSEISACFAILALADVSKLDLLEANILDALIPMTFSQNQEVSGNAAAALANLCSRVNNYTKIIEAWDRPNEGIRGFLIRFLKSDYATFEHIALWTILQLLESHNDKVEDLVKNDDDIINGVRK

[2] = biological target: T2, Vac8[40–515]^A51R (S. cerevisiae, UniProt P39968 40-515, A51R); assay: SEC
T2 sequence (looked up): T1 sequence (looked up) with A12R, R16L

[3] = biological target: T3, tVac8 (Vac8 construct comprising residues 10–515) (S. cerevisiae, UniProt P39968 10-515); assay: AUC
T3 sequence (looked up): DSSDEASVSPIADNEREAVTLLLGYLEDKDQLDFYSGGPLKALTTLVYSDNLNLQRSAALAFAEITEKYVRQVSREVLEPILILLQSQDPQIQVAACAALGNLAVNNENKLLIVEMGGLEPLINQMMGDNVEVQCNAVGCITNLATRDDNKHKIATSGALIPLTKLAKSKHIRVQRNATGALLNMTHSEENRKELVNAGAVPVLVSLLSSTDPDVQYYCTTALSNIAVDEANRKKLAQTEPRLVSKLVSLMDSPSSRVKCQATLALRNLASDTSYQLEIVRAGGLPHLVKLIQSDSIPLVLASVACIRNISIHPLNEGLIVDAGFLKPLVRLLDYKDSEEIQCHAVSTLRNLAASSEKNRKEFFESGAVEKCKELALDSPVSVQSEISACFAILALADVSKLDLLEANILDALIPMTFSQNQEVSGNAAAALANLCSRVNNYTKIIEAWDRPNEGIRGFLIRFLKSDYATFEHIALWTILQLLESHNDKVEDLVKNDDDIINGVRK

[4] = biological target: T4, Vac8[40–578] (S. cerevisiae, UniProt P39968 40-578); assay: SAXS
T4 sequence (looked up): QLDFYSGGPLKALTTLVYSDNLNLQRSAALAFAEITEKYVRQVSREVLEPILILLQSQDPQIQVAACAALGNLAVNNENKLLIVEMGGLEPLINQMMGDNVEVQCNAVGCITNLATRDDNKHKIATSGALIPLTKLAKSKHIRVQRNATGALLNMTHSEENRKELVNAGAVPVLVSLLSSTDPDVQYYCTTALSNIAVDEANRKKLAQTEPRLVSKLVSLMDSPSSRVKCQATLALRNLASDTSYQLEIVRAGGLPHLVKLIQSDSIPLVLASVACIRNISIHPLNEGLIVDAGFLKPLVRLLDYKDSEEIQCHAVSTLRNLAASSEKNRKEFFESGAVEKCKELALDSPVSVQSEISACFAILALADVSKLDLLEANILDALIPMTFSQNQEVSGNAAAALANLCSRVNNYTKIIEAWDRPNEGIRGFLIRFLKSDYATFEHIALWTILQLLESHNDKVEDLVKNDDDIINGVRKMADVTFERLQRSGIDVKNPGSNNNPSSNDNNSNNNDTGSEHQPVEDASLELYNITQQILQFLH

Measured: binding result

B1: tAtg13 (Atg13 construct comprising residues 567–695) (domain or fragment, S. cerevisiae, UniProt Q06628 567-695, looked up)
chain: GGNSSTSALNSRRNSLDKSSNKQGMSGLPPIFGGESTSYHHDNKIQKYNQLGVEEDDDDENDRLLNQMGNSATKFKSSISPRSIDSISSSFIKSRIPIRQPYHYSQPTTAPFQAQAKFHKPANKLIDNG
binds: [1] | [2] | [3] | [4]
